We go through one substance from paper PMC12352893.

The target in the test is purified recombinant cathepsin A (CTSA) (human) (UniProt P10619).
Sequence of purified recombinant cathepsin A (CTSA) (human) (P10619 29-480): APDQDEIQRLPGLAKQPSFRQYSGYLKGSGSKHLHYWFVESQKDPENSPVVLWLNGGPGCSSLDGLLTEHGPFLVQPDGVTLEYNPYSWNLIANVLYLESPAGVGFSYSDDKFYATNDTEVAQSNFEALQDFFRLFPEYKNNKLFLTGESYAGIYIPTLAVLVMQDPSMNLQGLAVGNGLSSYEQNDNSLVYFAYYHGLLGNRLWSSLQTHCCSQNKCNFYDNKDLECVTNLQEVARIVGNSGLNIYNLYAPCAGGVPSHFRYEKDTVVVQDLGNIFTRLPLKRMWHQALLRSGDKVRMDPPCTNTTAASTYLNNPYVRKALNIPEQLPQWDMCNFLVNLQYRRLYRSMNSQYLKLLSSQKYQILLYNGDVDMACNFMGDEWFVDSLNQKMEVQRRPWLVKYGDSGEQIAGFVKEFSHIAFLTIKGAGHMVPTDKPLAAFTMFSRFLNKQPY

As to “purified recombinant NEU1 (from UniProt Q99519 48-415) (enzyme)”, the NEU1 enzymatic activity (moles of substrate/moles of NEU1/sec) of recombinant NEU1 incubated with CTSA; fold reduction by high HS concentrations (≥0.3 mg/mL) was found to be 100 fold.
